The values below come from publication PMC5101189, “Structure of the MIS12 Complex and Molecular Basis of Its Interaction with CENP-C at Human Kinetochores” (Cell, 2016).

For the assay, the target named is T1, NSL1, full length (subunit of the full-length MIS12C in the KMN assembly) (human, UniProt Q96IY1 1-281).
T1 sequence (looked up): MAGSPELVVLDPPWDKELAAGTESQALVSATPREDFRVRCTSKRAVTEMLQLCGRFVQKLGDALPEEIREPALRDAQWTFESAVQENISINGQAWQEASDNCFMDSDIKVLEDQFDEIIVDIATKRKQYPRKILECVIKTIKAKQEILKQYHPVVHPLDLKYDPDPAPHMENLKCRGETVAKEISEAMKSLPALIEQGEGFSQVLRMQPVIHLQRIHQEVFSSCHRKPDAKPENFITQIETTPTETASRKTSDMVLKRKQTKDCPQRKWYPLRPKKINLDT
Description: cross-linking; 10-subunit KMN assembly with a CENP-C fragment, 45 μg at 1 mg/ml, 650 μM BS3 (d0/d12), 30 min at 37°C; trypsin or AspN digest, tandem mass spectrometry (xQuest). The note with it: both partners purified.

B1: ZWINT (natural protein, human, UniProt O95229 1-277, looked up)
chain: MEAAETEAEAAALEVLAEVAGILEPVGLQEEAELPAKILVEFVVDSQKKDKLLCSQLQVADFLQNILAQEDTAKGLDPLASEDTSRQKAIAAKEQWKELKATYREHVEAIKIGLTKALTQMEEAQRKRTQLREAFEQLQAKKQMAMEKRRAVQNQWQLQQEKHLQHLAEVSAEVRERKTGTQQELDRVFQKLGNLKQQAEQERDKLQRYQTFLQLLYTLQGKLLFPEAEAEAENLPDDKPQQPTRPQEQSTGDTMGRDPGVSFKAVGLQPAGDVNLP
notes: ZWINT, human, subunit of KNL1C in the cross-linked 10-subunit KMN assembly; also called Zwint1
In the case of B1, the binding result is reported as “binds”.
